Data taken from the DeepSol protein solubility set.

Assay: soluble on expression in E. coli; label from the status in PepcDB or PDB records

## MSLSRQCVLAGISRAALYARRKPKRIVQDDELLLRLIDEEYTRHPFYGSRKMVVHLGRCGHSVNRKWAQRLMRSLGLAGMAPGPNTSRAHPQHKVYPYLLRGVAISRPNQVWSTDITYIRLARGFAYLVAVIDWYSRRVLSWRISNSMETVFCVDCLEEALRIHGKPEVFNTDQGSQFTSEAFTSVLKREGVIISMDGRGRALDNIFVERLWRSVKHEDVYLKGYSAMGELLIGLTQYFTFYNGERPHQALKNLTPDVVYQRAQGGGAMIVDKYGAAQSLPMALRSTGTAFDEVRLALLCHVTHADAGLSWRCSEGTERKSRDEAWREGHHHHHH
  soluble on expression in E. coli: not soluble

## MFVTQQLKLMGTVIDIQIESDKACQQLSRVIDLLYTYKNRFSANDSNSELMAINQAAGVKPVSVHSDLFNLIQIGKAHSLSTPSNLNIAIGPLVQAWRIGFEDARVPSHNLISQQLALTDPRQVLIDDKKQTVFLQQVGMALDLGALAKGYITDKIMAYLIEDGIDSALINLGGNVRVHGPNPKSPDKTFRIGIQKPDAKRGQHLGVIKVNNHSVVTSGIYERQFTSKGKQYHHILDRQTGYPIETDMLSLTIMAPSSFYCDIWTTRLFGLDSSMIITLLNTFDNIEGLLVTRKHHVLMSNGLRHYFQPYYH
  soluble on expression in E. coli: not soluble

## MEDEIKSFEKDRNLIIEDSKNSKNNIVDVQKLIEALKDEKNAKNIVVDFTEYNPLHNGHKYCMDFGKSEGLFISVIPGPLERSGRGIPYLVNRHIRAEMALLAGADLVVEGPPMGIMGSGQYMQCLIKIFSALNGDIIPRGYIEEETMERVINSINNGNHIKIKPYNISCIETREKLGEKLEIDNYVIASMSYTIYKLKENFPKWNPKFKFIERIEGISGTKIREGVFNNNFESIKHMLPITTIDVFKNFGDNLSEIILKRNEEMVLDTVNNFDLNKYLPENISEKLNEKEYYESIEEIKEYIPRGFSKNNIERTISKLEARIEKETISKYIENYPANLRILNGINNHE
  soluble on expression in E. coli: not soluble

## MGSDKIHHHHHHMGTDPIEARFEQLNVWRNGDKRAPHKPLLILLALASWQRGAREMRFAECEQKLGELIREFGPAAKAVHPEYPFWRLQNDGLWVVEADQEMRTRQSNSDPLKSELRAAGARGHFFADVAEELERRPALIGRVAQRVLDAHFPETLHEDILAAVGLEVSEETESTTRRRRDPNFRNAVLQAYQYRCAVCELDLRIGSITVGLEAAHVKWHQARGPDAVHNGVALCSLHHKLFDLGAFHIGADRRILVSEQVHGTSRFEEVLLRHHGALALEPVRSEHKVLRDFVGWHFDQVFKKEARPAT
  soluble on expression in E. coli: not soluble

## MSTAQAVKIGIAEMEVVIAPNVIRTCGLGSCVGVVIYDAGKAVAGMAHVMLPHSSMARGGVINAAKYADTAVEALVQLVIAAGGRKGMLKAKLAGGAQMFSFSTVGGDMMRIGARNVEEVKKQLERLHIPVVAEDVGGHSGRTIEFNPQTGVLSIRTAAQEIKEI
  soluble on expression in E. coli: not soluble

## MQNLRTDVLIIGGGEAGLVAGCRALTMGQKVILVEKNGYLGGATILNGSNVVGTGSDVAAQIFDNNHDTPEMLAQDVARESLETNYPALTDLMVHNIGPAIDFISKFADLHYQKAQTQTPEHSINRQIELPSASSYEFIQKVSKAFAAAGGQIMLDTRVEKLMLDNDKKLRGVIAAQKDQTVNIKARSVVLAAGGHGANQKMRGTESEGIDYYGPMTSTGDAYQFNGDLDLQTHDLGWYKLYPHGVEVEPGVAKLTTYASKQATDMGAIYVNSKGDRIVNESNVYTTFRNAILKQADKVAYLVMDERTWKKVYDLLILHDFTPEEIKSFFENKGKRPVFVKGSLESAAEQAGIVVDELVQTVKNYQGYVQDGHDHDFGRDPKYLHQFEGETFYIIEQRDRFATTLGGYSVDADNLQLVTTKNAPVANYFGAGEIIGGANGHDSMPSMMNTWGISSGYVAGAAASENAQRQATAGAAALEHHHHHH
  soluble on expression in E. coli: soluble

## MSAANPTRDDFASLLEESFTTGHSGEGQVVKGTITAIEKDMAIIDVGLKVEGRVPLKEFGVKGKDTTLKVGDTVEVYVERIENALGEAMLSREKARREESWVRLEEKFTKGERVEGVIFNQVKGGFTVDLDGAVAFLPRSQVDIRPIRDVSPLMHNPQPFEILKMDRRRGNIVVSRRTVLEESRAEQRSEIVQNLEEGQVVEGVVKNITDYGAFVDLGGIDGLLHVTDMAWRRVNHPTEILNIGQTVKVQIIRINQETHRISLGMKQLESDPWSEIGTKFPIGKKIKGTVTNITDYGAFVELEPGIEGLIHVSEMSWTKKNVHPGKILSTTQEVDVVVLEVDPAKRRISLGLKQTLENPWEAFARNHPVGSQVEGEVKNKTEFGLFIGLEGDVDGMVHLSDLDWTRPGEQVIEEYNRGDMVKAQVLDVDIEKERISLGIKQLARDTVGEAATSGELRKNAVVTCEVIGVKDGGLEVRLVDSGIETFIKRSDLSRDRDEQRPERFTVGQKVDARVIAFDKKTRKLQVSIKALEIAEEKEAVAQYGSTDSGASLGDILGAALKKQGNLEHHHHHH
  soluble on expression in E. coli: soluble
